“And” between values parts separate entries of the source, which are not always exact repeats. Equal entries are not always repeated. Where two headings read alike, the source gives them in different places.
Tests used:
[1] = target: T1, Transmembrane domain peptide of AM2 (TM-AM2), wild type (influenza A virus (strain not stated)); test: native MS
[2] = target: T1, Transmembrane domain peptide of AM2 …; test: native MS; remark: listed apart in the source

SDPLVVAASIIGILHLILWIL (modifications not checked) [Transmembrane domain peptide of AM2 (TM-AM2), wild type]
stoichiometry N [1]: 6
stoichiometry N [2]: 2 and 4

From paper PMC8665133
